Data published in paper PMC4967814 (Cell, 2016).
Blank lines part the entries; values can stand above or below the binder they belong to.

What was measured:
[1] = target: T1, human IL22 (Homo sapiens, UniProt Q9GZX6); assay: SPR; Biacore T200; who was immobilised is not told for these mAbs (values of Table S3); details: both partners purified
T1 construct: interleukin-22, human; also called interleukin-22

[2] = target: T2, recombinant human IFNα4 (Homo sapiens, UniProt P05014); assay: SPR; antibodies 19D11 and 26B9 immobilized on Biacore chips; different concentrations of recombinant human IFNs passed over; Biacore T200; details: both partners purified
T2 construct: interferon alpha-4, human; source: recombinant
T2 sequence (P05014 24-189): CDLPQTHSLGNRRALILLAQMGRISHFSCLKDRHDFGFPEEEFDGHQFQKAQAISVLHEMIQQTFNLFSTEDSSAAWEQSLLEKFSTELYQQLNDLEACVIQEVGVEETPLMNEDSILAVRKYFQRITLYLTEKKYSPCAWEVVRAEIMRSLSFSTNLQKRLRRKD

[3] = target: T3, recombinant human IFNα14 (Homo sapiens, UniProt P01570); assay: as above; details: both partners purified
T3 construct: interferon alpha-14, human; source: recombinant
T3 sequence (P01570 24-189): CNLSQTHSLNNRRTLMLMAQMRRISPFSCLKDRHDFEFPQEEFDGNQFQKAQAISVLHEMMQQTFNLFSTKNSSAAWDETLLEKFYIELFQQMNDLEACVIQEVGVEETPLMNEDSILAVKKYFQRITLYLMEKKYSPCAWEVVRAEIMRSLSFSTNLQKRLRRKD

[4] = target: T4, recombinant human IFNω (Homo sapiens, UniProt P05000); assay: as above; details: both partners purified
T4 construct: interferon omega-1, human; source: recombinant
T4 sequence (P05000 22-195): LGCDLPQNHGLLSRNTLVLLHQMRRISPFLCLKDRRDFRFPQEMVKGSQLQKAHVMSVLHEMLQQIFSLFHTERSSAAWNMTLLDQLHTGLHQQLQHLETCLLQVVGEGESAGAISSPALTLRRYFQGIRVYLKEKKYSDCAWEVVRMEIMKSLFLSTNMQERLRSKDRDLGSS

[5] = target: T5, human IL17F (Homo sapiens, UniProt Q96PD4); assay: ELISA; IL17F immobilized; mAbs and germline counterparts added
T5 construct: interleukin-17F, human
T5 sequence (Q96PD4 31-163): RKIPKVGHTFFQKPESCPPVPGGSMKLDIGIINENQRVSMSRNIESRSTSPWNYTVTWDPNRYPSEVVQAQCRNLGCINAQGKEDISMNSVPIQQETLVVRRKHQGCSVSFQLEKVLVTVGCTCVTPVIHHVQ

[6] = target: T5, human IL17F; assay: SPR; Biacore T200; who was immobilised is not told for these mAbs (values of Table S3); details: both partners purified

T1 sequence (Q9GZX6 34-179): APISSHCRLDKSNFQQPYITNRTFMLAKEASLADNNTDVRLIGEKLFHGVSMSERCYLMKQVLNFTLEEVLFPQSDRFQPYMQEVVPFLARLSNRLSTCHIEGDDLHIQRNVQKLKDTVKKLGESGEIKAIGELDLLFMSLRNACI

B1: 30G1, patient-derived IgGκ antibody specific for IL22 (antibody, V domains shown)
VH: EVQLLESGGGLVQPGGSLRLSCAASGFTFSTYAMSWVRQAPGKGLEWVSTITSSGGATYHADSVKGRLTISRDNSKNTLYLEMNSLRVEDTAVYYCAKDWGRTVYAVIKDLDIWGQGTLVTVSS
VL: EIVMTQSPAILSVSPGERATLSCRASQSVSNYLAWFQQKPGQAPRLLIYDTSKRATGTPARFSGSGSGTDFTLTISSLEPEDFAVYFCQQRSDWPQYTFGQGTKLEIK
notes: kappa light chain; IgG1 kappa by the cloning vectors; source: recombinant
Kd [1]: 37 pM

B2: 35G11, patient-derived IgGλ antibody specific for IL22 (antibody, V domains shown)
VH: QVQLVQSGSELRRPGASVNISCKASGYGFNTYAMNWVRQAPGQGPEWMGWINTDTGDPTYAQGFTGRFAFFLDTSASTAFLQITRLTGEDTAVYFCARTRNNWNGVYYHYSGLDVWGQGTTVTVSS
VL: QSVLTQPPSASGTPGQTVTISCSGSSPNLGDNYVYWYHQVPGTAPKLLIFRNTQRPSGVTDRFSGSKYGTSASLAISDLRSDDEGDFYCASWDDRLSRLVFGGGTKLTVL
notes: lambda light chain; IgG1 lambda by the cloning vectors; source: recombinant
Kd [1]: 39 pM

B4: 26B9, APS1/APECED patient-derived anti-IFN monoclonal antibody (antibody, V domains shown)
VH: QILLQESGPGLVKPTETLSLTCSVSGDSISDSSHYWAWIRQPPGKGPEWIGSVYFSSMTHYNPSLKSRVSISVDKPKNQFSLKVTSVTVADTATYYCARQALARVGAMNWFDPWGQGSLVTVSS
VL: DIIMTQSPDSLPVSLGEGVTINCKSSQSVFFTSSNKSCLAWYQQKPGKSPKLLIYWASTRQSGVPDRFRGSGSGTDFSLTITSLQAEDVAVYFCQQCQTSPPTFGGGTRLEIK
notes: V regions cloned into vectors providing IgG1 and Ig-kappa constant regions; source: recombinant, harvested from transfected CHO cells (SPR); recombinant antibodies were also produced in HEK293T cells
binding result [2]: binds | Kd [3]: 0.0328 pM | binding result [4]: binds

B6: 9A2, patient-derived IL17F-reactive mAb (antibody, V domains shown)
VH: EVQLEESGGGLVQPGGSLRLSCAASGFPFSNYEMNWVRQAPGKGLEWISYISVSGGPAHYADSVKGRFTISRDDATKSLFLQMNRLRADDTAVYYCVRREYVTGRNYNYYPYMDVWGTGTTVTVSP
VL: DIQMTQSPSSLSASVGDRVTITCRASQTISDYLNWYQHKPGEAPKLLIYSASTLQRGVPSRFSGSGSGTDFVFTISSLQSDDFATYYCQQTSSTALTFGGGTKVEVK
notes: source: recombinant
binding result [5]: binds

B7: 17E3, patient-derived IgGκ mAb specific for IL17F (antibody, V domains shown)
VH: QVQLVQSGAEVAKPGASVRLSCKASGFSFIKYYMHWVRQAPGQGLEWMGVIEPTGGGTSSAQKFRDRVTLSRDTSTATVHLEVSRLTLEDTGIYFCVRDSIYCKHGTCHRTVIDAFDIWGQGTAVTVSS
VL: DIQMTQSPSSLSASVGDRVTITCRSSQDIKNDLAWYQQKPGKAPERLIYAASNLQSGVPSRFSGSGSGTEFSLTISGLQPEDFATYYCLQHNSYPLLTFGGGTKVEIK
notes: as for B1
Kd [6]: < 10 pM

More lines, now with the values ahead:

Kd [1]: 54 pM
B3: fezakinumab, CHO cell-expressed form (in-house-expressed anti-IL22 mAb) (antibody, V domains shown)
VH: QVQLVQSGAEVKKPGASVKVSCKASGYTFTNYYMHWVRQAPGQGLEWVGWINPYTGSAFYAQKFRGRVTMTRDTSISTAYMELSRLRSDDTAVYYCAREPEKFDSDDSDVWGRGTLVTVSS
VL: QAVLTQPPSVSGAPGQRVTISCTGSSSNIGAGYGVHWYQQLPGTAPKLLIYGDSNRPSGVPDRFSGSKSGTSASLAITGLQAEDEADYYCQSYDNSLSGYVFGGGTQLTVL
notes: expressed as the patient mAbs (vectors providing IgG1 and light-chain constant regions); source: CHO cell-expressed; V regions ordered as CHO-codon-optimized synthetic constructs (GenScript)

binding result [4]: no binding
B5: 19D11, APS1/APECED patient-derived anti-IFN monoclonal antibody (antibody, V domains shown)
VH: QVQLVQSGAEVKRPGSSVRVSCRASGDTFSSYPISWVRQAPGQGLEWMGRILPALGVTNYAQNFRGRITITADKSPLTAYLELSSLRFEDTAVYYCASPSADIIPSILGTTLFAFWGQGSLVTVSS
VL: EIVLTQSPGTLSLSPGEGATLSCRASQNVSRHYLTWYQQKPGQSPRLLIYGGSSRATGVPDRFSGGGSGTDFTLTISRLEPEDFAVFYCQSYHSPPPVYTFGQGTKVEIK
notes: as for B4
